Measurements as given in PMC12034804.

B1: recombinant human Siglec-10 Fc chimera (Fc fusion)
chain: MDGRFWIRVQESVMVPEGLCISVPCSFSYPRQDWTGSTPAYGYWFKAVTETTKGAPVATNHQSREVEMSTRGRFQLTGDPAKGNCSLVIRDAQMQDESQYFFRVERGSYVRYNFMNDGFFLKVTALTQKPDVYIPETLEPGQPVTVICVFNWAFEECPPPSFSWTGAALSSQGTKPTTSHFSVLSFTPRPQDHNTDLTCHVDFSRKGVSAQRTVRLRVAYAPRDLVISISRDNTPALEPQPQGNVPYLEAQKGQFLRLLCAADSQPPATLSWVLQNRVLSSSHPWGPRPLGLELPGVKAGDSGRYTCRAENRLGSQQRALDLSVQYPPENLRVMVSQANRTVLENLGNGTSLPVLEGQSLCLVCVTHSSPPARLSWTQRGQVLSPSQPSDPGVLELPRVQVEHEGEFTCHARHPLGSQHVSLSLSVHYSPKLLGPSCSWEAEGLHCSCSSQASPAPSLRWWLGEELLEGNSSQDSFEVTPSSAGPWANSSLSLHGGLSSGLRLRCEAWNVHGAQSGSILQLPDKKGLISTAFSN

Legend:
[1] = molecular target: eGFP-CD24 (CD24 fused with eGFP at the N-terminus), on CHO-CD24 cells (UniProt P25063)
[2] = molecular target: enhanced green fluorescent protein (eGFP) [GFP: P42212]; assay: BLI; ForteBio sensors loaded with 20 nM solutions, baseline in PBS with 1 mg/ml BSA, single concentration of analyte, 1000 rpm, 1:1 binding model, Kd from kd : ka; the section's heading calls it isothermal titration calorimetry; who was on the sensor is not told
[3] = molecular target: eGFP-CD24 (CD24 fused with eGFP at the N-terminus), on CHO-CD24 cells (UniProt P25063); remark: listed apart in the source
[4] = molecular target: de-N-glycosylated eGFP-CD24, on CHO-CD24 cells treated with nbGFP-PNGF (UniProt P25063); assay: flow cytometry on cells; CHO-CD24 cells incubated with 5 nM PNGF or nbGFP-PNGF for 2 hours, with or without 50 µM P-3Fax-Neu5Ac; bound enzyme dissociated in acidic buffer (100 mM Glycine, 150 mM NaCl, pH 3.0, 0.1% Tween-20) for 2 min; then human Siglec-10 Fc chimera, biotin anti-human IgG Fc, Cy5-streptavidin

| Molecule | de-N-glycosylation of eGFP-CD24 on CHO cells (western blot, 2 h): concentration at which it is complete; 500 nM PNGF without the nanobody could not [1] [nM] | Kd [2] [nM] | phagocytosis of CHO-CD24 cells by mouse bone marrow-derived macrophages after treatment with nbGFP-PNGF, against control (flow cytometry) [3] [fold] | percent of the CD24/Siglec-10 interaction that is due to the N-glycans (lost on de-N-glycosylation) [4] [%] |
| --- | --- | --- | --- | --- |
| nbGFP-PNGF (Peptide-N-glycosidase F fused to an N-terminal nanobody against eGFP) | 5 | 5.58 | – | – |
| B1 | – | – | 0.5 | > 82 |
